Measurements reported in publication PMC4526739.

Tests used:
Assay in all cases: EMSA
Nab2;Tbp;Brf1;Bdp1 = Nab2;Tbp;Brf1;Bdp1 (Saccharomyces cerevisiae;Saccharomyces …, UniProt P32505;P13393;P29056;P46678 1-525;1-240;1-596;1-594, |||)
Nab2;Tbp = biological target: T1, Nab2;Tbp (Saccharomyces cerevisiae;Saccharomyces …, UniProt P32505;P13393 1-525;1-240, |)
T1 sequence 1: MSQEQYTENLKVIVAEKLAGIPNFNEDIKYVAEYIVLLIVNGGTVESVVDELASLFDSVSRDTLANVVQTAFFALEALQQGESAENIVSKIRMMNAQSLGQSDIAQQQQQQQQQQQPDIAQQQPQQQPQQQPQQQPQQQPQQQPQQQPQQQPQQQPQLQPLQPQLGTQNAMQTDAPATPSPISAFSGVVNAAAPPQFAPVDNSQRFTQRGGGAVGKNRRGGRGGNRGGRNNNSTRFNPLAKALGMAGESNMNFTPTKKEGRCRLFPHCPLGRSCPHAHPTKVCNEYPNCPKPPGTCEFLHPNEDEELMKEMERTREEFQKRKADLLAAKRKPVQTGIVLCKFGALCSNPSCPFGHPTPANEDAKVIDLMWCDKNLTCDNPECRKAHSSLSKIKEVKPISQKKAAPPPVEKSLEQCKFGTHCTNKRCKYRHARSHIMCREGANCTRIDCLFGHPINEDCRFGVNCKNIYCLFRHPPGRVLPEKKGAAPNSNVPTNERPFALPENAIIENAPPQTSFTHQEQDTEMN
T1 sequence 2: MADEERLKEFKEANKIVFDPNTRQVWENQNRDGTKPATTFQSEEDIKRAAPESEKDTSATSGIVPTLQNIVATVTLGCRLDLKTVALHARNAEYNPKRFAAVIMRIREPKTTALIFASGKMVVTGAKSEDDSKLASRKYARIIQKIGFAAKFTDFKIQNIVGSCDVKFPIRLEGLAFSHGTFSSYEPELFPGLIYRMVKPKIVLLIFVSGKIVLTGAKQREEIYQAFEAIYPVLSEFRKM

Nab2;Tbp;Brf1 = biological target: T2, Nab2;Tbp;Brf1 (Saccharomyces cerevisiae;Saccharomyces …, UniProt P32505;P13393;P29056 1-525;1-240;1-596, ||)
T2 sequence 1: T1 sequence 1
T2 sequence 2: T1 sequence 2
T2 sequence 3: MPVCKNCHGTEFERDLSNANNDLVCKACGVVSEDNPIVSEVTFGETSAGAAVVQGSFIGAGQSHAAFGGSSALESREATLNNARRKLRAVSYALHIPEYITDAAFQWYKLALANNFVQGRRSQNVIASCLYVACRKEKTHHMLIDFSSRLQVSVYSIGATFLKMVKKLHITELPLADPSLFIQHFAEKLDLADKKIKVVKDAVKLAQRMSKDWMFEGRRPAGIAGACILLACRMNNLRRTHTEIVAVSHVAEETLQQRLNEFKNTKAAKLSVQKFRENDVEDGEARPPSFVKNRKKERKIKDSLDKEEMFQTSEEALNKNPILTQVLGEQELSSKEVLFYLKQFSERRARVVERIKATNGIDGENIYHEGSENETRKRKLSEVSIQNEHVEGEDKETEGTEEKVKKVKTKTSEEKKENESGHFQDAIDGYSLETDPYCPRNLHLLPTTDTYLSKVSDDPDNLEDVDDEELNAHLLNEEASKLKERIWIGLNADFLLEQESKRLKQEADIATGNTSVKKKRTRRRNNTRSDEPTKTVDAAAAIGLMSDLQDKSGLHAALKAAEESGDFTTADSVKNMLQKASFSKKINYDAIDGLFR

Measured: binding result

Sequence of Nab2;Tbp;Brf1;Bdp1 (P46678 whole entry, one chain of several): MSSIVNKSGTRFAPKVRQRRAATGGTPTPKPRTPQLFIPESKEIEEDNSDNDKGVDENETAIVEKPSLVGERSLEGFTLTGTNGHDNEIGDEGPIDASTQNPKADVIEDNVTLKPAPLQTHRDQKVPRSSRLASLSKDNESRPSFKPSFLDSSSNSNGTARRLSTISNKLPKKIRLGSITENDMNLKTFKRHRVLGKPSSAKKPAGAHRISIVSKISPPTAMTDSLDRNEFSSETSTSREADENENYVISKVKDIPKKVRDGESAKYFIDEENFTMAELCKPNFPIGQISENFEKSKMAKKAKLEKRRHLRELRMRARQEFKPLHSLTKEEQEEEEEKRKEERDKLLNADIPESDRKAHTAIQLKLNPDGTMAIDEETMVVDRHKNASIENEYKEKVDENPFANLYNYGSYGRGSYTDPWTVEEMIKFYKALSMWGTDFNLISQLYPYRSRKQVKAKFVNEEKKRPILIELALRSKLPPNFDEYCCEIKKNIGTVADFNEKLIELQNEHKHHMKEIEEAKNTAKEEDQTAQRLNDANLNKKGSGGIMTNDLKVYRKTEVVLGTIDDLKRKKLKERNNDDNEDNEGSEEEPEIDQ

B1: TA-30-B6 (dsDNA)
DNA 1: GCTGAAATCTCTTTTTCAATTGCTCCGGTGTATAAAGCCGCGGTCCCTTACTCTTTCTTCAACAATTAAATACTC
DNA 2: GAGTATTTAATTGTTGAAGAAAGAGTAAGGGACCGCCCCTTTATTGACCGGAGCAATTGAAAAAGAGATTTCAGC
binds: all assays above
